Experimental data: patent publication US20120076815A1

Molecular target: recombinant TcPRACA proline racemase of Trypanosoma cruzi (subunit) (Trypanosoma cruzi) (UniProt Q4DA80)
Assay: cell-based or functional assay

recombinant TcPRACA proline racemase of Trypanosoma cruzi (subunit) (from UniProt Q4DA80 30-423) (enzyme)
% racemization (fraction B1, start of the dimer peak): 35.5%
% racemization (fraction B2, dimer peak, about 80 kDa): 62.9%
% racemization (fraction B4, monomer peak, about 43 kDa): 0.7%
% racemization (fraction B5, end of the monomer peak): 0%
